For data set [1], the system named is HeLa Kyoto. As to the kind of experiment: solubility in G1/S (NP-40 vs SDS abundance) (log2 ratio); higher = more soluble. As to conditions: cell cycle stage: G1/S.
Data set [2] has as its system HeLa Kyoto. The experiment in a line: melting temperature (median over replicates), in situ; higher = more thermally stable.
Data set [3] has as its system HeLa Kyoto. The experiment in a line: solubility change mitosis vs G1/S (difference of NP-40 vs SDS log2 ratios) (log2 ratio difference); higher = more soluble in mitosis.
In data set [4] the test system is HeLa Kyoto. As to the kind of experiment: thermal stability score vs G1/S (z-score of summed log2 fold changes over temperatures); higher = more thermally stable than in G1/S.
Setting [5] is: cell cycle stage: early G1 (4.5 h after nocodazole release).
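For melting temperature (median over replicates), in situ in this document: HeLa Kyoto cells synchronized by double thymidine or nocodazole block, proteins quantified by TMT10plex mass spectrometry, three independent biological replicates.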
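For solubility change mitosis vs G1/S (difference of NP-40 vs SDS log2 ratios) in this document: synchronized HeLa Kyoto cells (double thymidine block for G1/S, nocodazole release for mitosis), protein amounts in NP-40 versus SDS lysates quantified by mass spectrometry, three biological replicates.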
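For solubility in G1/S (NP-40 vs SDS abundance) in this document: HeLa Kyoto cells arrested at G1/S by double thymidine block, proteins quantified by TMT10plex mass spectrometry in mild NP-40 versus SDS extracts, three biological replicates.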
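For thermal stability score vs G1/S (z-score of summed log2 fold changes over temperatures) in this document: synchronized HeLa Kyoto cells, proteins quantified by TMT10plex mass spectrometry, three biological replicates, mitosis taken 0.5 h after nocodazole release, G1/S directly after double thymidine block.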

As to “MPILKQLVSSSVHSKRRSRADLTAEMISAPLGDFRHTMHVGRAGDAFGDTSFLNSKAGEPDGESLDEQPSSSSSKRSLLSRKFRGSKRSQSVTRGEREQRDMLGSLRDSALFVKNAMSLPQLNEKEAAEKGTSKLPKSLSSSPVKKANDGEGGDEEAGTEEAVPRRNGAAGPHSPDPLLDEQAFGDLTDLPVVPKATYGLKHAESIMSFHIDLGPSMLGDVLSIMDKEEWDPEEGEGGYHGDEGAAGTITQAPPYAVAAPPLARQEGKAGPDLPSLPSHALEDEGWAAAAPSPGSARSMGSHTTRDSSSLSSCTSGILEERSPAFRGPDRARAAVSRQPDKEFSFMDEEEEDEIRV [CDC42EP4]”, the “solubility in G1/S (log2)” value in data set [1] turned out to be 0.487. In addition, the melting temperature in data set [2] (cell cycle stage: G1/S) came out at 53.6 °C; in data set [2] (cell cycle stage: mitosis), 51.8 °C. For the same sequence, the “solubility change mitosis (log2)” value in data set [3] was -0.0259. For the same sequence, the thermal stability score in data set [4] (setting [5]) was -3.73; in data set [4] (cell cycle stage: mitosis), -2.19.
For the sequence “MPKCPKCNKEVYFAERVTSLGKDWHRPCLKCEKCGKTLTSGGHAEHEGKPYCNHPCYAAMFGPKGFGRGGAESHTFK [CRIP1]”, the “solubility in G1/S (log2)” value in data set [1] was -0.362. Further, the melting temperature was determined as 57.6 °C in data set [2] (cell cycle stage: G1/S) and 53.5 °C in data set [2] (cell cycle stage: mitosis). Also, the “solubility change mitosis (log2)” value in data set [3] was 0.414. Also, the thermal stability score is -4.54 in data set [4] (setting [5]) and -5.63 in data set [4] (cell cycle stage: mitosis).
Regarding “MPKFKAARGVGGQEKHAPLADQILAGNAVRAGVREKRRGRGTGEAEEEYVGPRLSRRILQQARQQQEELEAEHGTGDKPAAPRERTTRLGPRMPQDGSDDEDEEWPTLEKAATMTAAGHHAEVVVDPEDERAIEMFMNKNPPARRTLADIIMEKLTEKQTEVETVMSEVSGFPMPQLDPRVLEVYRGVREVLSKYRSGKLPKAFKIIPALSNWEQILYVTEPEAWTAAAMYQATRIFASNLKERMAQRFYNLVLLPRVRDDVAEYKRLNFHLYMALKKALFKPGAWFKGILIPLCESGTCTLREAIIVGSIITKCSIPVLHSSAAMLKIAEMEYSGANSIFLRLLLDKKYALPYRVLDALVFHFLGFRTEKRELPVLWHQCLLTLVQRYKADLATDQKEALLELLRLQPHPQLSPEIRRELQSAVPRDVEDVPITVE [BYSL]”, the “solubility in G1/S (log2)” value in data set [1] was -0.343. Also, the melting temperature stood at 48.3 °C in data set [2] (cell cycle stage: G1/S) and 49 °C in data set [2] (cell cycle stage: mitosis). For the same sequence, in data set [3], the “solubility change mitosis (log2)” value was determined as 0.115. The thermal stability score in data set [4] (setting [5]) was found to be 1.85; in data set [4] (cell cycle stage: mitosis), 5.44.
Consider “MPKGGRKGGHKGRARQYTSPEEIDAQLQAEKQKAREEEEQKEGGDGAAGDPKKEKKSLDSDESEDEEDDYQQKRKGVEGLIDIENPNRVAQTTKKVTQLDLDGPKELSRREREEIEKQKAKERYMKMHLAGKTEQAKADLARLAIIRKQREEAARKKEEERKAKDDATLSGKRMQSLSLNK [PDAP1]”, for which the “solubility in G1/S (log2)” value in data set [1] amounted to 0.734. Also, the melting temperature in data set [2] (cell cycle stage: G1/S) is 57.9 °C; in data set [2] (cell cycle stage: mitosis) it was 54.2 °C. Moreover, in data set [3], the “solubility change mitosis (log2)” value was found to be 0.473. In addition, the thermal stability score in data set [4] (setting [5]) is -6.85; in data set [4] (cell cycle stage: mitosis) it was -6.55.
Turning to “MPKHEFSVDMTCGGCAEAVSRVLNKLGGVKYDIDLPNKKVCIESEHSMDTLLATLKKTGKTVSYLGLE [ATOX1]”, in data set [1], the “solubility in G1/S (log2)” value was -0.375. The melting temperature was 54.8 °C in data set [2] (cell cycle stage: G1/S) and 52.8 °C in data set [2] (cell cycle stage: mitosis). Also, the “solubility change mitosis (log2)” value in data set [3] amounted to 0.149. The results for the thermal stability score in data set [4] (setting [5]) and in data set [4] (cell cycle stage: mitosis) were -3.27 and -2.04, respectively.
For the sequence “MPKPINVRVTTMDAELEFAIQPNTTGKQLFDQVVKTVGLREVWFFGLQYVDSKGYSTWLKLNKKVTQQDVKKENPLQFKFRAKFFPEDVSEELIQEITQRLFFLQVKEAILNDEIYCPPETAVLLASYAVQAKYGDYNKEIHKPGYLANDRLLPQRVLEQHKLTKEQWEERIQNWHEEHRGMLREDSMMEYLKIAQDLEMYGVNYFEIKNKKGTELWLGVDALGLNIYEHDDKLTPKIGFPWSEIRNISFNDKKFVIKPIDKKAPDFVFYAPRLRINKRILALCMGNHELYMRRRKPDTIEVQQMKAQAREEKHQKQLERAQLENEKKKREIAEKEKERIEREKEELMERLKQIEEQTIKAQKELEEQTRKALELDQERKRAKEEAERLEKERRAAEEAKSAIAKQAADQMKNQEQLAAELAEFTAKIALLEEAKKKKEEEATEWQHKAFAAQEDLEKTKEELKTVMSAPPPPPPPPVIPPTENEHDEHDENNAEASAELSNEGVMNHRSEEERVTETQKNERVKKQLQALSSELAQARDETKKTQNDVLHAENVKAGRDKYKTLRQIRQGNTKQRIDEFEAM [RDX]”, the “solubility in G1/S (log2)” value in data set [1] stood at 0.0601. Moreover, the melting temperature in data set [2] (cell cycle stage: G1/S) is 57.1 °C; in data set [2] (cell cycle stage: mitosis), 56.4 °C. Moreover, in data set [3], the “solubility change mitosis (log2)” value stood at 0.0339. Moreover, the thermal stability score was determined as 0.702 in data set [4] (setting [5]) and 0.805 in data set [4] (cell cycle stage: mitosis).
“MPKRKVSSAEGAAKEEPKRRSARLSAKPPAKVEAKPKKAAAKDKSSDKKVQTKGKRGAKGKQAEVANQETKEDLPAENGETKTEESPASDEAGEKEAKSD [HMGN1]”: the “solubility in G1/S (log2)” value in data set [1] turned out to be 0.0899. In addition, the values for the melting temperature in data set [2] (cell cycle stage: G1/S) and in data set [2] (cell cycle stage: mitosis) were 59 °C and 56.4 °C, respectively. In addition, the “solubility change mitosis (log2)” value in data set [3] turned out to be 1.47. The thermal stability score in data set [4] (setting [5]) was -2.25; in data set [4] (cell cycle stage: mitosis) it was -4.73.
For “MPKVKRSRKAPPDGWELIEPTLDELDQKMREAETEPHEGKRKVESLWPIFRIHHQKTRYIFDLFYKRKAISRELYEYCIKEGYADKNLIAKWKKQGYENLCCLRCIQTRDTNFGTNCICRVPKSKLEVGRIIECTHCGCRGCSG [BUD31]”, the “solubility in G1/S (log2)” value in data set [1] was -0.0954. The results for the melting temperature in data set [2] (cell cycle stage: G1/S) and in data set [2] (cell cycle stage: mitosis) were 51.1 °C and 50.9 °C, respectively. Also, the “solubility change mitosis (log2)” value in data set [3] came to 0.184. The thermal stability score in data set [4] (setting [5]) turned out to be 1.19; in data set [4] (cell cycle stage: mitosis), 0.411.
In the case of “MPKVKSGAIGRRRGRQEQRRELKSAGGLMFNTGIGQHILKNPLIINSIIDKAALRPTDVVLEVGPGTGNMTVKLLEKAKKVVACELDPRLVAELHKRVQGTPVASKLQVLVGDVLKTDLPFFDTCVANLPYQISSPFVFKLLLHRPFFRCAILMFQREFALRLVAKPGDKLYCRLSINTQLLARVDHLMKVGKNNFRPPPKVESSVVRIEPKNPPPPINFQEWDGLVRITFVRKNKTLSAAFKSSAVQQLLEKNYRIHCSVHNIIIPEDFSIADKIQQILTSTGFSDKRARSMDIDDFIRLLHGFNAEGIHFS [DIMT1]”, the “solubility in G1/S (log2)” value in data set [1] was -0.509. Besides, the melting temperature was found to be 54.2 °C in data set [2] (cell cycle stage: G1/S) and 53.2 °C in data set [2] (cell cycle stage: mitosis). The “solubility change mitosis (log2)” value in data set [3] was determined as 0.276. The thermal stability score in data set [4] (setting [5]) was 0.644; in data set [4] (cell cycle stage: mitosis) it was 1.74.
As to “MPLFATNPFDQDVEKATSEMNTAEDWGLILDICDKVGQSRTGPKDCLRSIMRRVNHKDPHVAMQALTLLGACVSNCGKIFHLEVCSRDFASEVSNVLNKGHPKVCEKLKALMVEWTDEFKNDPQLSLISAMIKNLKEQGVTFPAIGSQAAEQAKASPALVAKDPGTVANKKEEEDLAKAIELSLKEQRQQSTTLSTLYPSTSSLLTNHQHEGRKVRAIYDFEAAEDNELTFKAGEIITVLDDSDPNWWKGETHQGIGLFPSNFVTADLTAEPEMIKTEKKTVQFSDDVQVETIEPEPEPAFIDEDKMDQLLQMLQSTDPSDDQPDLPELLHLEAMCHQMGPLIDEKLEDIDRKHSELSELNVKVMEALSLYTKLMNEDPMYSMYAKLQNQPYYMQSSGVSGSQVYAGPPPSGAYLVAGNAQMSHLQSYSLPPEQLSSLSQAVVPPSANPALPSQQTQAAYPNTMVSSVQGNTYPSQAPVYSPPPAATAAAATADVTLYQNAGPNMPQVPNYNLTSSTLPQPGGSQQPPQPQQPYSQKALL [STAM]”, the “solubility in G1/S (log2)” value in data set [1] is 0.292. For the same sequence, the melting temperature in data set [2] (cell cycle stage: G1/S) stood at 50.3 °C; in data set [2] (cell cycle stage: mitosis), 52 °C. The “solubility change mitosis (log2)” value in data set [3] is -0.163. In addition, the thermal stability score turned out to be 0.119 in data set [4] (setting [5]) and 0.654 in data set [4] (cell cycle stage: mitosis).
With “MPLLFLERFPWPSLRTYTGLSGLALLGTIISAYRALSQPEAGPGEPDQLTASLQPEPPAPARPSAGGPRARDVAQYLLSDSLFVWVLVNTACCVLMLVAKLIQCIVFGPLRVSERQHLKDKFWNFIFYKFIFIFGVLNVQTVEEVVMWCLWFAGLVFLHLMVQLCKDRFEYLSFSPTTPMSSHGRVLSLLVAMLLSCCGLAAVCSITGYTHGMHTLAFMAAESLLVTVRTAHVILRYVIHLWDLNHEGTWEGKGTYVYYTDFVMELTLLSLDLMHHIHMLLFGNIWLSMASLVIFMQLRYLFHEVQRRIRRHKNYLRVVGNMEARFAVATPEELAVNNDDCAICWDSMQAARKLPCGHLFHNSCLRSWLEQDTSCPTCRMSLNIADNNRVREEHQGENLDENLVPVAAAEGRPRLNQHNHFFHFDGSRIASWLPSFSVEVMHTTNILGITQASNSQLNAMAHQIQEMFPQVPYHLVLQDLQLTRSVEITTDNILEGRIQVPFPTQRSDSIRPALNSPVERPSSDQEEGETSAQTERVPLDLSPRLEETLDFGEVEVEPSEVEDFEARGSRFSKSADERQRMLVQRKDELLQQARKRFLNKSSEDDAASESFLPSEGASSDPVTLRRRMLAAAAERRLQKQQTS [AMFR]”, in data set [1], the “solubility in G1/S (log2)” value is -0.387. The melting temperature in data set [2] (cell cycle stage: G1/S) and in data set [2] (cell cycle stage: mitosis) was 51.3 °C throughout. Besides, the “solubility change mitosis (log2)” value in data set [3] is -0.081. Also, the results for the thermal stability score in data set [4] (setting [5]) and in data set [4] (cell cycle stage: mitosis) were 0.15 and -0.174, respectively.

The record behind these values is the supplement of paper PMC5998384.
